Test results published in patent US9254322B2, “Compositions comprising E-selectin antagonists and uses therefor” (The University of Queensland, priority 2007, dated 2016).

What was measured:
[1] = tested on: long-term reconstituting hematopoietic stem cells; assay: HSC cycling and number in vivo following cytotoxic insult with 5-fluorouracil in wild-type and E-selectin KO mice
Experimental: Adult mice (10-14 week-old) with homologous deletion of the E-selectin gene were administered intravenously a single dose of 5-FU at 150 mg/kg. At days 2 and 6 following 5-FU, mice were injected intraperitoneally BrdU 100 mg/kg followed by a continuous dose of 1 mg/mL in their drinking water at a concentration of 1 mg/mL. 18 hours following the injection of BrdU. Mice were sacrificed, their bone marrow cells collected as described above and stained with the following combination of antibodies: a) biotinylated antibodies against lineage-specific antigens CD3, CD5, B220/CD45R, CD11b, Gr-1/Ly-6C/G, CD41, Ter119 together with streptavidin conjugated to PercP-Cy5.5; b) fluorescein isothiocyanate (FITC) conjugated anti-CD48; c) phycoerythrin (PE) conjugated anti-CD150; d) PECy7 conjugated anti-Sca-1/Ly-6A/E; f) allophycocyanin (APC) conjugated anti-CD117 antibodies. True hematopoietic stem cells with the phenotype Lineage-negative, Sca1-positive, CD117-positive, CD41-negative, CD48-negative, CD150-positive were counted and sorted as described above. Sorted cells were cytospun on glass slides and stained with anti-BrdU antibodies as described above.

[2] = tested on: hematopoietic stem and progenitor cells; assay: Mobilization of HSC with recombinant human pegylated G-CSF in wild-type and E-selectin KO mice; format: in vivo, C57BL/6 mice; conditions: 3-day course, total 1 mg/kg s.c.
Experimental: Mobilization was induced in wild-type C57BL/6 mice and in C57BL/6 mice carrying homologous deletion of the E-selectin gene (E-selectin KO mice), using recombinant human G-CSF following a mobilization dosing and protocol similar to that used for human patients.
Adult mice (10- to 14-week old males) were administered recombinant human pegylated G-CSF (granulocyte colony stimulating factor) subcutaneously. Two doses were given 36 hours apart, each at 0.5 mg/kg. The G-CSF used was Neulasta, from Amgen. Neulasta was diluted to 0.1 mg/mL in sterile saline for injection and 100 μL used per injection into 20 g mice. In some experiments, a cohort of ‘control’ mice received saline injections alone.
Blood containing the mobilized HSC, was collected 3 days following the initial G-CSF injection using heparin as anticoagulant (13 units of sodium heparin/mL blood). Four different assays were performed on the blood to determine the extent of HSC mobilization. Some of these assays are surrogate measures of mobilization that are commonly used in the clinical setting; that is they measure associated changes, not HSC content directly. These are total blood leukocyte counts and numbers colony forming cells (CFC) in the blood. The third assay based on phenotypic analysis (expression of a panel of surface markers which define long-term reconstituting HSC), while directly measuring HSC, also detect some progenitor cell populations. Phenotypic enumeration is commonly used to determine HSC mobilization in human patients (a different array of cell-surface markers are used in mice). […]
A) Blood leukocyte counts were measured on a Sysmex KX21 automated haematology analyser (Roche).
B) Colony forming cell assay. […] The number of colony forming cells (CFC) per mL of blood can then been calculated. […]

[3] = tested on: hematopoietic stem and progenitor cells; assay: G-CSF mobilization after 8 rounds of cyclophosphamide chemotherapy in wild-type and E-selectin KO mice; format: in vivo; conditions: mice pre-treated with 8 fortnightly rounds of cyclophosphamide 200 mg/kg, 6 weeks rest, then G-CSF; FIG. 8
Experimental: Wild-type and E-selectin KO mice were first administered 8 consecutive rounds of chemotherapy. The chemotherapeutic agent used was the alkylating agent cyclophosphamide administered as a single intraperitoneal injection at 200 mg/kg. Mice were given 8 rounds of cyclophosphamide chemotherapy at fortnightly intervals, then left to recover for 6 weeks before administration of G-CSF (total 1 mg/kg as above) and blood collected 3 days later at HSC mobilization. Blood was analyzed for total leukocyte count, Colony forming cells and phenotypic HSC as described above.

In the case of `O=c1[nH]cc(F)c(=O)[nH]1` [5FU, 5-fluorouracil], the “HSC numbers per femur, E-selectin-/- versus WT mice” value ([1]; day 7 after single dose 150 mg/kg, FIG. 4) is reported as 5 fold and the “BrdU incorporation in hematopoietic stem cells, E-selectin knock-out versus wild-type mice” value ([1]; days 3 and 7 after single dose 150 mg/kg, BrdU in last 17 hours, FIG. 3) is reported as “significantly lower”.

B1: pegylated G-CSF: recombinant human pegylated G-CSF (granulocyte colony stimulating factor), Neulasta from Amgen (protein, UniProt P09919 31-207, looked up)
Granulocyte …: TPLGPASSLPQSFLLKCLEQVRKIQGDGAALQEKLVSECATYKLCHPEELVLLGHSLGIPWAPLSSCPSQALQLAGCLSQLHSGLFLYQGLLQALEGISPELGPTLDTLQLDVADFATTIWQQMEELGMAPALQPTQGAMPAFASAFQRRAGGVLVASHLQSFLEVSYRVLRHLAQP
modifications: PEG (pegfilgrastim)
notes: recombinant human pegylated G-CSF (granulocyte colony stimulating factor), Neulasta from Amgen
For B1, the “number of phenotypic HSC per mL of mobilized blood, E-selectin KO versus wild-type mice” value ([2]; FIG. 7C) was 2.5 fold, the “number of CFC per mL of mobilized blood, E-selectin KO versus wild-type mice” value ([2]; blood collected 3 days after first injection, FIG. 7B) was 2.5 fold and the “number of functional long-term reconstituting HSC per mL of mobilized blood, E-selectin KO versus wild-type mice” value ([2]; competitive long-term reconstitution assay) was 12 fold. The “CFC per mL of peripheral blood, E-selectin KO versus wild-type mice” value [3] was 5 fold and the “phenotypic HSC per mL of peripheral blood, E-selectin KO versus wild-type mice” value [3] was 2.5 fold.
